By Kd is commonly meant a measure of binding affinity in units of concentration.

This test concerns the target His-tagged full-length Anisakis simplex macrophage migration inhibitory factor (As-MIF, 1-121) (Anisakis simplex). Kind of test: SPR. (In general: SPR reads the build-up and loss of mass on a sensor chip optically.)

“His-tagged human JAB1 (1-257) (from UniProt Q92905 1-257) (domain or fragment)” yielded a Kd of 0.0166 µM.

The values above are taken from PMC5458677.
